The labels stand for the following.
B1: human iduronate-2-sulfatase (hIDS), co-expressed with human formylglycine-generating enzyme (HsFGE) (enzyme)
chain: SETQANSTTDALNVLLIIVDDLRPSLGCYGDKLVRSPNIDQLASHSLLFQNAFAQQAVCAPSRVSFLTGRRPDTTRLYDFNSYWRVHAGNFSTIPQYFKENGYVTMSVGKVFHPGISSNHTDDSPYSWSFPPYHPSSEKYENTKTCRGPDGELHANLLCPVDVLDVPEGTLPDKQSTEQAIQLLEKMKTSASPFFLAVGYHKPHIPFRYPKEFQKLYPLENITLAPDPEVPDGLPPVAYNPWMDIRQREDVQALNISVPYGPIPVDFQRKIRQSYFASVSYLDTQVGRLLSALDDLQLANSTIIAFTSDHGWALGEHGEWAKYSNFDVATHVPLIFYVPGRTASLPEAGEKLFPYLDPFDSASQLMEPGRQSMDLVELVSLFPTLAGLAGLQVPPRCPVPSFHVELCREGKNLLKHFRFRDLEEDPYLPGNPRELIAYSQYPRPSDIPQWNSDKPSLKDIKIMGYSIRTIDYRYTVWVGFNPDEFLANFSDIHAGELYFVDSDPLQDHNMYNDSQGGDLFQLLMP
modifications: cysteine 84 post-translationally modified to formylglycine (fGly); N-linked glycans
notes: iduronate-2-sulfatase (IDS), human; 550-residue protein; also called human IDS; hIDS + HsFGE
B2: IDS-A3, reconstructed ancestral iduronate-2-sulfatase (last common ancestor of primates and rodents), co-expressed with HsFGE (enzyme)
chain: SETQANSTTDALNVLLIIVDDLRPSLGCYGDKLVRSPNIDQLASHSLLFQNAFAQQAVCAPSRVSFLTGRRPDTTRLYDFNSYWRVHAGNFSTIPQYFKENGYVTMSVGKVFHPGISSNHSDDSPYSWSFPPYHPSSEKYENTKTCRGPDGELHANLLCPVDVADVPEGTLPDKQSTEQAIRLLEKMKTSASPFFLAVGYHKPHIPFRYPKEFQKLYPLENITLAPDPQVPDGLPPVAYNPWMDIRQREDVQALNISVPYGPIPVDFQRKIRQSYFASVSYLDTQVGHLLSALDDLQLANSTIVAFTSDHGWALGEHGEWAKYSNFDVTTRVPLMFYVPGRTAPLPEAGEKLFPYLDPFDSASELMEPGRQTMDLVELVSLFPTLAGLAGLQVPPRCPVPSFHVELCREGQNLLKHFRFHDLEEDPHLHGNPRELIAYSQYPRPADSPQWNSDKPSLKDIKIMGYSIRTIDYRYTVWVGFNPDEFLANFSDIHAGELYFVDSDPLQDHNMYNDSQGGDLPQSLMP
modifications: cysteine 84 post-translationally modified to formylglycine (fGly); N-linked glycans
B3: IDS-A3_T354A, variant of ancestral IDS-A3 with the reversed mutation at position 354, co-expressed with HsFGE (enzyme)
chain: SETQANSTTDALNVLLIIVDDLRPSLGCYGDKLVRSPNIDQLASHSLLFQNAFAQQAVCAPSRVSFLTGRRPDTTRLYDFNSYWRVHAGNFSTIPQYFKENGYVTMSVGKVFHPGISSNHSDDSPYSWSFPPYHPSSEKYENTKTCRGPDGELHANLLCPVDVADVPEGTLPDKQSTEQAIRLLEKMKTSASPFFLAVGYHKPHIPFRYPKEFQKLYPLENITLAPDPQVPDGLPPVAYNPWMDIRQREDVQALNISVPYGPIPVDFQRKIRQSYFASVSYLDTQVGHLLSALDDLQLANSTIVAFTSDHGWALGEHGEWAKYSNFDVATRVPLMFYVPGRTAPLPEAGEKLFPYLDPFDSASELMEPGRQTMDLVELVSLFPTLAGLAGLQVPPRCPVPSFHVELCREGQNLLKHFRFHDLEEDPHLHGNPRELIAYSQYPRPADSPQWNSDKPSLKDIKIMGYSIRTIDYRYTVWVGFNPDEFLANFSDIHAGELYFVDSDPLQDHNMYNDSQGGDLPQSLMP
modifications: cysteine 84 post-translationally modified to formylglycine (fGly); N-linked glycans

Our source for the Kd values is paper PMC7907806, “Ancestral lysosomal enzymes with increased activity harbor therapeutic potential for treatment of Hunter syndrome” (iScience, 2021).

As a reminder, the Kd is a measure of binding affinity in units of concentration.

In the experiment the target is recombinant human mannose-6-phosphate receptor (M6PR) (human, UniProt P11717 41-2491). The experiment in a line: SPR; Biacore T200, single cycle kinetics mode; IDS enzymes co-expressed with HsFGE on recombinant human M6P receptor; who was immobilised is not given in the source. As to conditions: both partners purified. For orientation: SPR reads the build-up and loss of mass on a sensor chip optically.
As for B1, the Kd was 32 nM.

With B2, the Kd is 26 nM.

B3: the Kd was 46 nM.
